B1: Serine/threonine-protein kinase LATS1, residues 98 to 141; numbered along this chain, O95835 (parent)
chain: TSEVNPQMLQDLQAAGFDEDMVIQALQKTNNRSIEAAIEFISKM

± gives the uncertainty stated by the source.

Variants of B1 are the subject of the series. The experiment in a line: abundance fitness (aPCA) (normalised: wild type 0, dead -1); higher = more abundant; growth selection in yeast, the domain comes from the species named. To be noted: Homo sapiens.
Turning to TSEVNPQMLQDLQAAGFDEDMVIQVLQKTNNRSIEAAIEFISKM [A25V], the abundance fitness is -0.68 ± 0.05.
For the variant TSEVNPQMLQDLQAAGFDEDMVIQELQKTNNRSIEAAIEFISKM [A25E], the abundance fitness is -0.668 ± 0.06.
For TSEVNPQMLQDLQAAGFDEDMVIQWLQKTNNRSIEAAIEFISKM [A25W] the value was -0.728 ± 0.042.
For TSEVNPQMLQDLQAAGFDEDMVIQHLQKTNNRSIEAAIEFISKM [A25H] the value was -0.937 ± 0.21.
In the case of TSEVNPQMLQDLQAAGFDEDMVIQPLQKTNNRSIEAAIEFISKM [A25P], the abundance fitness was -0.415 ± 0.056.
With TSEVNPQMLQDLQAAGFDEDMVIQNLQKTNNRSIEAAIEFISKM [A25N], the abundance fitness is -0.622 ± 0.13.
For TSEVNPQMLQDLQAAGFDEDMVIQDLQKTNNRSIEAAIEFISKM [A25D], the abundance fitness is -0.541 ± 0.088.
For TSEVNPQMLQDLQAAGFDEDMVIQTLQKTNNRSIEAAIEFISKM [A25T] the value was -0.741 ± 0.058; for TSEVNPQMLQDLQAAGFDEDMVIQRLQKTNNRSIEAAIEFISKM [A25R], -0.768 ± 0.046; for TSEVNPQMLQDLQAAGFDEDMVIQQLQKTNNRSIEAAIEFISKM [A25Q], -0.697 ± 0.088.
In the case of TSEVNPQMLQDLQAAGFDEDMVIQKLQKTNNRSIEAAIEFISKM [A25K], the abundance fitness was -0.684 ± 0.083.
As for TSEVNPQMLQDLQAAGFDEDMVIQMLQKTNNRSIEAAIEFISKM [A25M], the abundance fitness is -0.887 ± 0.1.
For TSEVNPQMLQDLQAAGFDEDMVIQILQKTNNRSIEAAIEFISKM [A25I] the value was -0.631 ± 0.24; for TSEVNPQMLQDLQAAGFDEDMVIQGLQKTNNRSIEAAIEFISKM [A25G], -0.443 ± 0.033.
On to TSEVNPQMLQDLQAAGFDEDMVIQYLQKTNNRSIEAAIEFISKM [A25Y], for which the abundance fitness is -0.554 ± 0.067.
For TSEVNPQMLQDLQAAGFDEDMVIQSLQKTNNRSIEAAIEFISKM [A25S] the value was -0.295 ± 0.035.
For TSEVNPQMLQDLQAAGFDEDMVIQLLQKTNNRSIEAAIEFISKM [A25L] the value was -0.802 ± 0.057; for TSEVNPQMLQDLQAAGFDEDMMIQALQKTNNRSIEAAIEFISKM [V22M], -0.674 ± 0.066.
For TSEVNPQMLQDLQAAGFDEDMRIQALQKTNNRSIEAAIEFISKM [V22R] the value was -0.623 ± 0.051.
For the variant TSEVNPQMLQDLQAAGFDEDMQIQALQKTNNRSIEAAIEFISKM [V22Q], the abundance fitness is -0.48 ± 0.065.
Take TSEVNPQMLQDLQAAGFDEDMSIQALQKTNNRSIEAAIEFISKM [V22S]: the abundance fitness turned out to be 0.183 ± 0.041.
For TSEVNPQMLQDLQAAGFDEDMYIQALQKTNNRSIEAAIEFISKM [V22Y] the value was -0.824 ± 0.14; for TSEVNPQMLQDLQAAGFDEDMPIQALQKTNNRSIEAAIEFISKM [V22P], -0.47 ± 0.05.
Turning to TSEVNPQMLQDLQAAGFDEDMTIQALQKTNNRSIEAAIEFISKM [V22T], the abundance fitness is -0.262 ± 0.048.
For TSEVNPQMLQDLQAAGFDEDMWIQALQKTNNRSIEAAIEFISKM [V22W] the value was -0.796 ± 0.065; for TSEVNPQMLQDLQAAGFDEDMLIQALQKTNNRSIEAAIEFISKM [V22L], -0.538 ± 0.052; for TSEVNPQMLQDLQAAGFDEDMNIQALQKTNNRSIEAAIEFISKM [V22N], -0.448 ± 0.092.
Take TSEVNPQMLQDLQAAGFDEDMVIQALQKDNNRSIEAAIEFISKM [T29D]: the abundance fitness is -0.902 ± 0.29.
Take TSEVNPQMLQDLQAAGFDEDMVIQALQKGNNRSIEAAIEFISKM [T29G]: the abundance fitness is -0.527 ± 0.033.
For TSEVNPQMLQDLQAAGFDEDMVIQALQKINNRSIEAAIEFISKM [T29I] the value was -0.589 ± 0.073; for TSEVNPQMLQDLQAAGFDEDMVIQALQKKNNRSIEAAIEFISKM [T29K], -0.806 ± 0.1; for TSEVNPQMLQDLQAAGFDEDMVIQALQKENNRSIEAAIEFISKM [T29E], -0.529 ± 0.046.
For the variant TSEVNPQMLQDLQAAGFDEDMVIQALQKFNNRSIEAAIEFISKM [T29F], the abundance fitness was -1.09 ± 0.16.
With TSEVNPQMLQDLQAAGFDEDMVIQALQKANNRSIEAAIEFISKM [T29A], the abundance fitness is -0.646 ± 0.047.
For TSEVNPQMLQDLQAAGFDEDMVIQALQKCNNRSIEAAIEFISKM [T29C], the abundance fitness is -0.375 ± 0.043.
For TSEVNPQMLQDLQAAGFDEDMVIQAVQKTNNRSIEAAIEFISKM [L26V] the value was -0.571 ± 0.044; for TSEVNPQMLQDLQAAGFDEDMVIQAPQKTNNRSIEAAIEFISKM [L26P], -0.341 ± 0.052.
As to TSEVNPQMLQDLQAAGFDEDMVIQADQKTNNRSIEAAIEFISKM [L26D], the abundance fitness was -0.354 ± 0.059.
For TSEVNPQMLQDLQAAGFDEDMVIQAEQKTNNRSIEAAIEFISKM [L26E] the value was -0.263 ± 0.041; for TSEVNPQMLQDLQAAGFDEDMVIQAQQKTNNRSIEAAIEFISKM [L26Q], -0.412 ± 0.05; for TSEVNPQMLQDLQAAGFDEDMVIQAIQKTNNRSIEAAIEFISKM [L26I], -0.292 ± 0.074.
For the variant TSEVNPQMLQDLQAAGFDEDMVIQAWQKTNNRSIEAAIEFISKM [L26W], the abundance fitness was -0.683 ± 0.045.
For TSEVNPQMLQDLQAAGFDEDMVIQAAQKTNNRSIEAAIEFISKM [L26A] the value was -0.523 ± 0.037; for TSEVNPQMLQDLQAAGFDEDMVIQAMQKTNNRSIEAAIEFISKM [L26M], -0.559 ± 0.072.
As for TSEVNPQMLQDLQAAGFDEDMVIQAFQKTNNRSIEAAIEFISKM [L26F], the abundance fitness was -0.54 ± 0.096.
Turning to TSEVNPQMLQDLQAAGFDEDMVIQANQKTNNRSIEAAIEFISKM [L26N], the abundance fitness is -0.377 ± 0.06.
For TSEVNPQMLQDLQAAGFDEDMVIQAKQKTNNRSIEAAIEFISKM [L26K] the value was -0.424 ± 0.069; for TSEVNPQMLQDLQAAGFDEDMVIQAGQKTNNRSIEAAIEFISKM [L26G], -0.358 ± 0.032; for TSEVNPQMLQDLQAAGFDEDMVIQAHQKTNNRSIEAAIEFISKM [L26H], -0.111 ± 0.16.
As to TSEVNPQMLQDLQAAGFDEDMVIQALEKTNNRSIEAAIEFISKM [Q27E], the abundance fitness was -0.041 ± 0.042.
For TSEVNPQMLQDLQAAGFDEDMVIQALRKTNNRSIEAAIEFISKM [Q27R] the value was -0.042 ± 0.031; for TSEVNPQMLQDLQAAGFDEDMVIQALGKTNNRSIEAAIEFISKM [Q27G], -0.292 ± 0.031.
As to TSEVNPQMLQDLQAAGFDEDMVIQALAKTNNRSIEAAIEFISKM [Q27A], the abundance fitness is -0.125 ± 0.037.
For TSEVNPQMLQDLQAAGFDEDMVIQALLKTNNRSIEAAIEFISKM [Q27L] the value was -0.068 ± 0.04.
For TSEVNPQMLQDLQAAGFDEDMVIQALSKTNNRSIEAAIEFISKM [Q27S] the value was -0.071 ± 0.036; for TSEVNPQMLQDLQAAGFDEDMVIQALCKTNNRSIEAAIEFISKM [Q27C], -0.273 ± 0.042.
For TSEVNPQMLQDLQAAGFDEDMVIQALKKTNNRSIEAAIEFISKM [Q27K] the value was 0.068 ± 0.044.
With TSEVNPQMLQDLQAAGFDEDMVIQALHKTNNRSIEAAIEFISKM [Q27H], the abundance fitness is -0.269 ± 0.092.
